The values below come from patent publication US20160145321A1.

The target of assay [1] is T1, Sym-1706 (RSV G central conserved domain (CCD) peptide, type A 145-184) (Respiratory syncytial virus type A). The experiment in a line: ELISA, antibody titrated on biotinylated peptide on avidin plates (FIG. 3). Background: An ELISA detects its analyte on a solid surface through an enzyme-linked reagent.
Assay [2] addresses T2, Sym-1705 (RSV-G type A central region peptide 145-201) (Respiratory syncytial virus type A). The assay is described as above.
Assay [3] addresses T3, Sym-1789 (RSV-G type B central region peptide 145-184) (Respiratory syncytial virus type B). The assay is described as above.
The target of assay [4] is T4, Sym-1788 (RSV-G type B central region peptide 145-201) (Respiratory syncytial virus type B). The assay is described as above.
Assay [5] deals with T1, Sym-1706 (RSV G central conserved …). The experiment in a line: BLI (Octet Red384), biotinylated peptide on streptavidin sensor tips. For orientation: BLI is a label-free optical method that tracks binding on a fibre tip over time.
Assay [6] has as its target T2, Sym-1705 (RSV-G type A central region …). The description is as above.
The target in assay [7] is T3, Sym-1789 (RSV-G type B central region …). Described as above.
The target of assay [8] is T4, Sym-1788 (RSV-G type B central region …). The assay is described as above.
In assay [9] the target is G protein of RSV A/Long (virus, ATCC Cat. No. VR-26) (Respiratory syncytial virus A/Long) (UniProt P20895). The experiment in a line: cell-based or functional assay.

B1: CB010.7 (antibody, V domains shown)
VH: QVQLVESGGGVVQPGRSLRLSCAASGFTFNTHGMHWVRQAPGKGLEWVAVMSYDGTKKYHADSVKGRFTISRDNSKNTLYLQMNSLRVEDTAIYYCAKVGELRSFDWLLADGTAYYYYGMDVWGQGTTVTVSS
VL: not shown
In the case of B1, the IC50 in assay [1], in assay [2], in assay [3] and in assay [4] was 0.02 µg/mL each time. The binding response (Octet) [RU] in [5] turned out to be 1.74 RU; in assay [6], 1.25 RU; in assay [7], 2.96 RU; in assay [8] it was 1.94 RU.

B2: CR9505 (an antibody based on 131-2G, comprising the heavy and light chain variable region of 131-2G) (antibody, from another filing, V domains shown)
VH: EVQLQQSGPELVKPGTSVKISCKASGYSFTGFTMNWVKQSHGKNLEWFGLINPFNGNTGYNQKFKGKATLTVDKSSSTAFMELLSLTSEDSAVYYCARSGKSYDYEAWFTYWGQGTLVTVSA
VL: DIVMTQTTLSLPVSLGNQASISCRSSQTIVHTNGNTYLEWYLQKPGQSPKLLIYKVSNRFSGVPDRFSGSGSGTDFILNISRVEAEDLGVYYCFQGSHVPFTFGSGTKLEIKR
In the case of B2, in [9], the Neutralization IC50 (plaque reduction assay, Vero cells) came to 0.018 µg/mL.

B3: CB003.1 (antibody, V domains shown)
VH: QVQLVQSGPELRKPGASVTVSCKASGYTFTTYYIHWVRQAPGGGLDWMGMINTGSGVTSYAQKFQGRVAMTRDTSTSTVFMELSSLRFEDTALYYCARMYSGSWYPFDYWGQGALVTVSS
VL: EIVLTQSPGTLSLSPGERATLSCRASQNINGNYLAWYQQKPGLAPRLLIYEASSRATGIPDRFSGSGSGTDFTLTISSLEPEDFGVYYCQQYGTSPFFTFGPGTKVDIK
As to B3, the IC50 in assay [1], in assay [2], in assay [3] and in assay [4] was 0.02 µg/mL each time. Also, the binding response (Octet) [RU] in assay [5] was 3.36 RU; in assay [6] it was 3.48 RU; in assay [7], 3.2 RU; in [8], 3.28 RU.

In general, IC50 refers to the concentration that inhibits the measured activity by half. Read a high IC50 as weaker potency in that assay.
